One test deals with T1, rat cubilin (rat, UniProt O70244 33-3623).
T1 construct: cubilin, rat, purified and immobilised on the SPR chip; probably the native receptor purified from rat kidney (surmised)
In words: SPR; rat megalin or cubilin immobilised; human cysC flowed at 20-500 nM (7 concentrations); CaHBS: 10 mM HEPES, 150 mM NaCl, 1.5 mM CaCl2, 1 mM EGTA, pH 7.4; Biacore 3000; Langmuir 1:1 model, global fit. Conditions: both partners purified.

Another test concerns the target T2, rat megalin (rat, UniProt P98158 26-4660).
T2 construct: megalin, rat, purified and immobilised on the SPR chip; probably the native receptor purified from rat kidney (surmised)
The test is described as above. Conditions: both partners purified.

T1 sequence (O70244 33-3623): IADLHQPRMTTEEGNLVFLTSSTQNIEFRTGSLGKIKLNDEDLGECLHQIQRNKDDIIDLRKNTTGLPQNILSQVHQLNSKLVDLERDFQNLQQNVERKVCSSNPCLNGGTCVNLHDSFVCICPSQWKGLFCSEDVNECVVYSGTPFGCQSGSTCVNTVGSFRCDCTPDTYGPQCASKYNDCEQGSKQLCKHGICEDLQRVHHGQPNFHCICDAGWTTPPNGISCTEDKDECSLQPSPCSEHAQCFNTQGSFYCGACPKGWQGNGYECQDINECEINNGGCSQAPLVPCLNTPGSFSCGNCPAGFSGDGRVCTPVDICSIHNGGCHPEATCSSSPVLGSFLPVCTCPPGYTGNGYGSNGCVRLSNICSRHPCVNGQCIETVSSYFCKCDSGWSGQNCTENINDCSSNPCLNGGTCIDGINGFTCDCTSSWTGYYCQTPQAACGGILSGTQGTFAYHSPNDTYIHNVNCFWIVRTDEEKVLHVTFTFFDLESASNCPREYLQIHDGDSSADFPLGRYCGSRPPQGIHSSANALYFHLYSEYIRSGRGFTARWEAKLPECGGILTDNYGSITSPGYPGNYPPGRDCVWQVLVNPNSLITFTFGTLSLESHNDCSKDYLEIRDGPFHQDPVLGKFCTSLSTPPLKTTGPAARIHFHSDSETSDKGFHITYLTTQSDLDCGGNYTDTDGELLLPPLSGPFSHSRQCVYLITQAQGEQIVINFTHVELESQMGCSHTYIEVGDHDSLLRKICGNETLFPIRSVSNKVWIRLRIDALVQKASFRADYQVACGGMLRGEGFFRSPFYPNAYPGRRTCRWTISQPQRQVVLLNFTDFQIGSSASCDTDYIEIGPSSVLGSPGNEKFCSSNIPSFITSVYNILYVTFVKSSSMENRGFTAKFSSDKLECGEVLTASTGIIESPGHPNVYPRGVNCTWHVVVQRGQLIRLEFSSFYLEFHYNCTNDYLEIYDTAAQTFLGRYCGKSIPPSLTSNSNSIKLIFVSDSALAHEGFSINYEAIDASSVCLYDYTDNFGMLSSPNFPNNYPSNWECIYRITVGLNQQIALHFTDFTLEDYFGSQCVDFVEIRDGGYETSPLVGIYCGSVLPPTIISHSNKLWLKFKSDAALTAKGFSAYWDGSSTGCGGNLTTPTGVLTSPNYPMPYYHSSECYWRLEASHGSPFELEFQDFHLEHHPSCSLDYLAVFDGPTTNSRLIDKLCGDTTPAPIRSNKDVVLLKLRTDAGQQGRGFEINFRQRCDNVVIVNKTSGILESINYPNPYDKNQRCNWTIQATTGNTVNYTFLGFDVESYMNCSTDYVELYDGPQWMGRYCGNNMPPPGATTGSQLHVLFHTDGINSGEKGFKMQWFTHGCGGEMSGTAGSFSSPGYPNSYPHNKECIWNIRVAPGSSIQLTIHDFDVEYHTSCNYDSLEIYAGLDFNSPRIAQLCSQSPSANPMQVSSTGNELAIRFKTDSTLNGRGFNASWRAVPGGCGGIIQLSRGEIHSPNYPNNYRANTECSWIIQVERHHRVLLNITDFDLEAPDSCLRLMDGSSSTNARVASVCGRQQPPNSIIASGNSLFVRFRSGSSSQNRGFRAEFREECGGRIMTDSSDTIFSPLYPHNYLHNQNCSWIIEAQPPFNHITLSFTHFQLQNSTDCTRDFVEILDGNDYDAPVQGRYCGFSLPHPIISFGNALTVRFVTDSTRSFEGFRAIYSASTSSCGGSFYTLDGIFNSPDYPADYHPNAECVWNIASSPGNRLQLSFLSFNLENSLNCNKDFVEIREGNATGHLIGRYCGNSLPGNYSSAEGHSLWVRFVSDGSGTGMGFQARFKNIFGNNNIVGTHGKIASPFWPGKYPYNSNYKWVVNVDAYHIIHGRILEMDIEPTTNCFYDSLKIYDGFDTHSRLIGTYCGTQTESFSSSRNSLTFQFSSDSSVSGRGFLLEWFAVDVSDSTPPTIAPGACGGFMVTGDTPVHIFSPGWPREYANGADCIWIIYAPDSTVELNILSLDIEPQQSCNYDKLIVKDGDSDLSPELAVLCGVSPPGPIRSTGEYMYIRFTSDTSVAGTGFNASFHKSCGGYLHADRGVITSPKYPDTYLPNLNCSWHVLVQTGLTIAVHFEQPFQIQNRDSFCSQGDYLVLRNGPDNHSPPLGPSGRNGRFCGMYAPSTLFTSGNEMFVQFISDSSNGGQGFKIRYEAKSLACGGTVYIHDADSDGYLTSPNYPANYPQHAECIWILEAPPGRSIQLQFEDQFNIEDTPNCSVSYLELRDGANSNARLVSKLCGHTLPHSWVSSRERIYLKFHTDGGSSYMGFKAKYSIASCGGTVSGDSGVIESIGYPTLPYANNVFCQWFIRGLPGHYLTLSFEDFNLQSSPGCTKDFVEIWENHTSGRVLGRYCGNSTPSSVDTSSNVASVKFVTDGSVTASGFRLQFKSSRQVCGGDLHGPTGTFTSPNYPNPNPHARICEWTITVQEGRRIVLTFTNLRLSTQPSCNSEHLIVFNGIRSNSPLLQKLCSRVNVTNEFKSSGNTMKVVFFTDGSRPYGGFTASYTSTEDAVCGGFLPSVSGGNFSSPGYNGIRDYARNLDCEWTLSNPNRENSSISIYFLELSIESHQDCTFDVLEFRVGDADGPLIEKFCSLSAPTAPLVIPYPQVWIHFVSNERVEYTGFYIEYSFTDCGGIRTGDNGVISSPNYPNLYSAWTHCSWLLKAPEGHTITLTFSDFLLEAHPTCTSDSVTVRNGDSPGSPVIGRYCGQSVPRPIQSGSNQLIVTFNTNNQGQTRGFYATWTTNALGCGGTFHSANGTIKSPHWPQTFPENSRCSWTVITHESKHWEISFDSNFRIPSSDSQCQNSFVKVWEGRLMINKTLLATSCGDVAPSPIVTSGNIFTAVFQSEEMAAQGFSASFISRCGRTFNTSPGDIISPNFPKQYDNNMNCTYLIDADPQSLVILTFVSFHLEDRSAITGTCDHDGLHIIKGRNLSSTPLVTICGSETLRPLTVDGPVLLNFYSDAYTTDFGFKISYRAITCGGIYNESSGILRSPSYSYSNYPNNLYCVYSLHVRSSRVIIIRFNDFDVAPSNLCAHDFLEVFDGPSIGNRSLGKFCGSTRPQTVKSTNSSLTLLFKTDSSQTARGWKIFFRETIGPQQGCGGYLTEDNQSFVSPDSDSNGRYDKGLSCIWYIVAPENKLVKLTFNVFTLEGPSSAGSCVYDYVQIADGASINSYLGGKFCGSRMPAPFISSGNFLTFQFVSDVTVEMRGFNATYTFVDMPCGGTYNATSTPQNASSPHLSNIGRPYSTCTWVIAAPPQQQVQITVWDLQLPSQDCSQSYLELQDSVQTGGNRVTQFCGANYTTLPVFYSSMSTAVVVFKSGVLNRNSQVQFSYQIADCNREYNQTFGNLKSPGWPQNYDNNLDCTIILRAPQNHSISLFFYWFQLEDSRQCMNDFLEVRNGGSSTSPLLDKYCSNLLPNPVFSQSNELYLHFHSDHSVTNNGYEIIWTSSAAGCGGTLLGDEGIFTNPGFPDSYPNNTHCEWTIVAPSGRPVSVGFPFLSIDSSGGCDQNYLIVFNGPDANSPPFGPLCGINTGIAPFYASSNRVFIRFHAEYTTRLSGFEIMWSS

B1: human cystatin C (natural protein, UniProt P01034 27-146, looked up)
chain: SSPGKPPRLVGGPMDASVEEEGVRRALDFAVGEYNKASNDMYHSRALQVVRARKQIVAGVNYFLDVELGRTTCTKTQPNLDNCPFHDQPHLKRKAFCSFQIYAVPWQGTMTLSKSTCQDA
notes: also called cysC
B1: the Kd was around 24 nM with rat cubilin and around 32 nM in the test with rat megalin.

For the origin of these results see article PMC5456377, “Megalin dependent urinary cystatin C excretion in ischemic kidney injury in rats” (PLoS ONE, 2017).
